Experimental data: article PMC7331476

Target: recombinant PD-L1, His tagged (human, UniProt Q9NZQ7 19-239)
Test: pull-down

Sequence of recombinant PD-L1, His tagged (Q9NZQ7 19-239): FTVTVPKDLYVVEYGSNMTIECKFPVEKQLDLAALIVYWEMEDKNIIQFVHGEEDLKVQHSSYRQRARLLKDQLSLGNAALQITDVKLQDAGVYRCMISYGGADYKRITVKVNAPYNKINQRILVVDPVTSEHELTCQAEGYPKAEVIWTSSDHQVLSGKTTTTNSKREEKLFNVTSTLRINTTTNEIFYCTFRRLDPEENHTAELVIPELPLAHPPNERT

B1: XQ-P3 biotinylated (ssDNA)
DNA: ACCGACCGTGCTGGACTCATCTCGCTTTTTTCACGGTCCACACTACTATGAGCGAGCCTGGCG
modifications: biotin
binding result: binds
